Test: Z-ISO in vitro enzyme assay with substrate-containing liposomes
Assay type: biochemical, Zea mays
Procedure: Z-ISO in vitro enzyme assay. Preparation of substrate-containing liposomes. To produce the substrate, 9,15,9′-tri-cis-ζ-carotene (tri) from E. coli BL21(DE3) cultures, 400 ml of Luria-Bertani medium (I % tryptone, 0.5% yeast extract and 1% NaCl) containing chloramphenicol (34 μg per ml (Sigma-Aldrich)) was inoculated with 8 ml of overnight culture containing pACCRT-EBP (no. 150). Cultures were grown in the dark at 37° C., with shaking at 160 r.p.m. for 8 h before induction with 10 mM IPTG. Cultures were further incubated at 28° C., with shaking at 100 r.p.m. for 40 h and for an additional 2 d without shaking. Cells were centrifuged at 2,600 g, and pellets were resuspended in a total of 40 ml of methanol, distributed in four conical tubes with equal volumes of extract and then sonicated twice on ice (30 s each, at 60% power) with a Vibra Cell VC600 sonicator equipped with a tapered 3-mm microtip (Sonics & Materials). Extracts were centrifuged at 2,600 g for 10 min, and supernatants were transferred to 15-ml conical tubes and evaporated under nitrogen gas in the dark. Dried samples were resolubilized in 300 μl of methanol, transferred to 1.5-ml microfuge tubes, frozen at −80° C. for 1 h and centrifuged at 16,000 g at 4° C. Extractions were then combined, and 1 ml was used to prepare liposomes. Cells also accumulate […] (di), and therefore enzymatic conversion is measured as the ratio of di to tri isomers. For preparation of liposomes, 1 ml of substrate extract (58 μM, estimated by spectroscopy, with the molar extinction coefficient for ζ-carotene, ε400, equal to 138,000) was mixed with 35 μl of soybean L-α-phosphatidylcholine (Sigma-Aldrich, 99% pure) (20 mg per ml in methanol). The mixture was dried under N2, and this was followed by addition of 800 μl sonication buffer (25 mM HEPES, pH 7.8, 100 mM NaCl and 10% glycerol) and sonication on ice with a Vibra Cell VC600 sonicator equipped with a 3-mm tapered microtip (Sonics & Materials) for 1 min, at intervals of 10 s at 20% power.
In vitro reactions. […]

B1: Z-ISO: 15-cis-ζ-carotene isomerase from Zea mays (SEQ ID NO: 12), heme b enzyme, purified as TEV-cleavable MBP fusion (protein)
chain: MASQLRLHLAATPPLLPHRRPHLPRPLCPTLNPIRAPLPPLSRVLSHARPARAVGGGIEPKEGVVAEGDESGGGPVLVGEDSAAFELKDQSVASWAYFAGILGAVLVALNVLWIDPSTGVGTKFLDAVASVSDSHEVVMLLLTIIFAVVHSGMASLRESGEKIVGERVYRVLFAGISLPLAVTTIVYFINHRYDGTQLWQVQGITGIHELLWFSSFISFFFLYPSTFNLLEVAAVDKPKLHMWETGIMRITRHPQMVGQVIWCLAHTLWIGNSVAVAASVGLISHHLFGAWNGDRRLLSRYGEAFEVLKKRTSVMPFAAIIDGRQKLPKDYHKEFFRLPYVAITMLTLGAYFAHPLMQASSYQLPW
modifications: MBP fusion, TEV-cleavable; Zea mays
What does the source list for B1?
conversion of substrate to product (Z-ISO pretreated with dithionite, 10 mM final (reducing conditions)): Conversion of the substrate to product occurred; conversion of substrate to product (as-purified enzyme (considered to be oxidized)): not functional; conversion of substrate to product (heat-denatured Z-ISO): not functional

Reference: patent US20180312877A1, “METHOD FOR ISOMERIZING DOUBLE BONDS” (Research Foundation of the City University of New York, priority 2015, published 2018)
